Data taken from patent US20130039923A1 (Novo Nordisk, published 2013).
Substitutions are numbered along the chain they refer to. In names and notes the source's numbering stands.

B1: human anti-IL20 antibody 2F6 (antibody, human IgG4, V domains shown)
VH: QITLKESGPTLVKPTQTLTLTCTFSGFSFSTNGVGVGWIRQPPGKALEWLALIYWNDDKRYSPSLKSRLTITKDTSKNQVVLTMTNMDPLDTATYYCAHSPFIMVRGVIITFFDFWGQGTLVT
VL: VIWMTQSPSLLSASTGDRVTISCRMSQGISSYLAWYQQKPGKAPELLIYAASTLQSGVPSRFSGSGSGTDFTLTISCLQSEDFATYYCQQYYSFPLTFGGGTKVEIKR
B2: recombinant human interleukin-20 (ligand)
chain: LKTLNLGSCVIATNLQEIRNGFSEIRGSVQAKDGNIDIRILRRTESLQDTKPANRCCLLRHLLRLYLDRVFKNYQTPDHYTLRKISSLANSFLTIKKDLRLCHAHMTCHCGEEAMKKYSQILSHFEKLEPQAAVVKALGELDILLQWMEETE
B3: F18 (LC: F56Type1; HC: F18) (antibody, human IgG4, V domains shown)
VH: QVQVVQSGAEVKKPGASVRVSCTASGYTFTDYAIHWVRQAPGQRLEWMGWINAGYGNTKYSQKFQGRVTITRDTSASTVYMELSSLRSEDTAVYYCAREGGALSWFGESQGFDYWGQGTLVT
VL: AIQLTQSPSSLSASVGDRVTITCRASQGISSALAWYQQKPGKAPKLLIYDASSLESGVPSRFSGSGSGTDFTLTISSLQPEDFATYYCQQFNSYPLTFGGGTKVEIKR
B4: F56 (LC: F56Type1; HC: F56) (antibody, human IgG4, V domains shown)
VH: B3 VH with V4L, T30P, D31N, V79A, A102V, S104L
VL: B3 VL
B5: human anti-IL20 antibody C11 (antibody, human IgG1, V domains shown)
VH: QVQLVQSGAEVKRPGASVKVSCKASGYTFTNDIIHWVRQAPGQRLEWMGWINAGYGNTQYSQNFQDRVSITRDTSASTAYMELISLRSEDTAVYYCAREPLWFGESSPHDYYGMDVWGQGTTVTVSS
VL: B3 VL
B6: 15D2 with an S241P mutation (antibody, V domains shown)
VH: B5 VH
VL: B3 VL
notes: IgG4 hinge mutation S241P (Kabat); Expressed in HEK293 or CHO cells (host named under assay); also called 15D2-S241P; not shown: human IgG4 heavy chain constant region
B7: human IL19 (ligand)
chain: LRRCLISTDMHHIEESFQEIKRAIQAKDTFPNVTILSTLETLQIIKPLDVCCVTKNLLAFYVDRVFKDHQEPNPKILRKISSIANSFLYMQKTLRQCQEQRQCHCRQEATNATRVIHDNYDQLEVHAAAIKSLGELDVFLAWINKNHEVMFSA
notes: Bought from R&D systems; whole entry named; also called hIL19

How the values were obtained:
[1] = target: cynomolgus IL22R1/IL20R2 receptor complex (cynomolgus monkey); assay: cell-based or functional assay
[2] = target: cynomolgus IL20R1/IL20R2 receptor complex (cynomolgus monkey); assay: cell-based or functional assay
[3] = target: B2; assay: cell-based or functional assay
[4] = target: T1, human IL20R1/IL20R2 receptor complex (human, UniProt Q9UHF4 30-553; Q6UXL0 30-311); assay: cell-based or functional assay
T1 sequence (looked up) 1: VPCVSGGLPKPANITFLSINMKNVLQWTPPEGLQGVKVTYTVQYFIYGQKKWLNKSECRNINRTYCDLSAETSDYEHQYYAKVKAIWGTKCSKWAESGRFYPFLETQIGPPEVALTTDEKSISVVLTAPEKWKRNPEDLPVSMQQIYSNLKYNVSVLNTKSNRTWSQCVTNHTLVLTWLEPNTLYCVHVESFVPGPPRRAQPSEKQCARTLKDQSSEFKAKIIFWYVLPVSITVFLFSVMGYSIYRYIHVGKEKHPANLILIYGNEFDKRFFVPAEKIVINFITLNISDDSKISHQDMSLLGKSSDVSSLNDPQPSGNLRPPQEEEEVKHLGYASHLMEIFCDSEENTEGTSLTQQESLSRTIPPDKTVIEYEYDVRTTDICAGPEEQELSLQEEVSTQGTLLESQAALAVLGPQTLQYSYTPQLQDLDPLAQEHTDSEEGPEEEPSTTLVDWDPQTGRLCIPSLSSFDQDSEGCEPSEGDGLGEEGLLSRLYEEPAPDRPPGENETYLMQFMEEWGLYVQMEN
T1 sequence (looked up) 2: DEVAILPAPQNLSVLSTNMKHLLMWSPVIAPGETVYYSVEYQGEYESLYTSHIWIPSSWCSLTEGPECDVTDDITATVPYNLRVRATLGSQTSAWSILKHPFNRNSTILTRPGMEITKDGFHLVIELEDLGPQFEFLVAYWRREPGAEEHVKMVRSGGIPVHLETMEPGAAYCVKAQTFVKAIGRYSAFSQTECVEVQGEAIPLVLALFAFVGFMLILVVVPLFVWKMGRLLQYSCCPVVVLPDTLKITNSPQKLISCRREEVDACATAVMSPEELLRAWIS

[5] = target: T2, human IL22R1/IL20R2 receptor complex (human, UniProt Q8N6P7 16-574; Q6UXL0 30-311); assay: cell-based or functional assay
T2 sequence (looked up) 1: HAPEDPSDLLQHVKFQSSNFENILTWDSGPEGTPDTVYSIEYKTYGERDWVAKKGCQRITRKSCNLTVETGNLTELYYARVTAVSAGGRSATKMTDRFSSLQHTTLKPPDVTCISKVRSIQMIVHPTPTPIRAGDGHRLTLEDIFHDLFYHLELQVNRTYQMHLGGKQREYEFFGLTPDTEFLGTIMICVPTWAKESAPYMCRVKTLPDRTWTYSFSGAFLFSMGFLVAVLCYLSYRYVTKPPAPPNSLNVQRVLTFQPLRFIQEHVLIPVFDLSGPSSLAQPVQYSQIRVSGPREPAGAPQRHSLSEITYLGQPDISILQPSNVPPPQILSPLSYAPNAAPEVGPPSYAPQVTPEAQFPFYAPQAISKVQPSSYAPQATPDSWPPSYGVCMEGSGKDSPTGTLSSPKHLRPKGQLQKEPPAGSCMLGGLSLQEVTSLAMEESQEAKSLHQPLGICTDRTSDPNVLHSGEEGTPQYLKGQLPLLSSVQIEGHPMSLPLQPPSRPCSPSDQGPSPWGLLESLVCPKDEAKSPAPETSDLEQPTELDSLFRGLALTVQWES
T2 sequence (looked up) 2: T1 sequence (looked up) 2

[6] = target: B2; assay: SPR (Biacore 3000/T100), antibody amine-coupled on CM5, recombinant hIL20 injected 3.125-100 nM, 1:1 Langmuir, 25 C; antibody from HEK293
Procedure: (§1) Affinity studies were performed using a direct binding procedure, with the monoclonal antibody covalently coupled via free amine groups to the carboxymethylated dextrane membrane (CM5) on the sensor chip surface. […] The kinetic parameters for the interaction could be calculated using a 1:1 interaction Langmuir fitting model.
(§2) The purified monoclonal antibodies were immobilized in individual flow cells on a CM5 type sensor chip. Immobilizations were performed using a standard amine coupling procedure, aiming for an immobilization level of 1000 Resonance Units (RU). The antibodies were diluted to 5 μg/ml in 10 mM NaAc pH 5.0. […] Association (injection) was 3 min., followed by a 30 min. dissociation (wash) period. Flow rate was 30 μl/min. Experiments were performed at 25° C. Regeneration of the surface following each cycle, was accomplished by injection of 30 sec. pulse of 10 mM Glycin-HCl pH 1.8, at a 30 ul/min flow rate. Detection in all flow cells simultaneously. Flow cell No. 1 contained no immobilized antibody, and was used for subtraction of background and bulk. […] Data was inspected for mass-transport limitations prior to calculation of the kinetic parameters. Experiments were performed on Biacore 3000 and T100 instruments. Data was evaluated using Biaeval 4.1 and Biacore T100 evaluation software.

[7] = target: B2; assay: SPR (Biacore 3000/T100), antibody amine-coupled on CM5, recombinant hIL20 injected 3.125-100 nM, 1:1 Langmuir, 25 C; antibody from CHO
Procedure: as §1, §2

[8] = target: T1, human IL20R1/IL20R2 receptor complex; assay: inferred from BaF-3(hIL20R) proliferation; IL19 reverted the 15D2 block

“cynomolgus IL20 (from UniProt Q9NYY1 25-176) (ligand)” gave a fold induction of luciferase reporter in transfected BHK cells, 1 nM cynoIL20 [1] of 3 to 4 fold and a fold induction of luciferase reporter in transfected BHK cells, 1 nM cynoIL20 [2] of 2 fold.

For B1, the “IC50, inhibition of IL20 induced proliferation of BaF-3(hIL20R) at 1e-9M hIL20 (assay 1)” value [3] was 15400 nM, the “IC50, inhibition of IL20 induced proliferation of BaF-3(hIL20R) at 1e-9M hIL20 (assay 2)” value [3] was 13900 nM and the “IC50, inhibition of IL20 induced proliferation of BaF-3(hIL20R) at 1e-9M hIL20 (assay 3)” value [3] was 1670 nM. For the same molecule, the “IC50, inhibition of IL20 induced proliferation of BaF-3(hIL20R) at 1e-9M hIL20 (assay 4)” value [3] was 360 nM, the “IC50, inhibition of IL20 induced proliferation of BaF-3(hIL20R) at 1e-9M hIL20 (assay 5)” value (from here on “IC50, inhibition … (assay 5)”) [3] was 1800 nM and the “IC50, inhibition of IL20 induced proliferation of BaF-3(hIL20R) at 1e-9M hIL20 (assay 6)” value [3] was 320 nM. For the same molecule, the “IC50, inhibition of IL20 induced proliferation of BaF-3(hIL20R) at 1e-9M hIL20 (assay 7)” value [3] was 15400 nM.

In the case of B2, the “fold induction of luciferase reporter in transfected BHK cells, 1 nM hIL20” value [4] is reported as about 3 fold and the “fold induction of luciferase reporter in transfected BHK cells, 1 nM hIL20” value [5] is reported as about 3 fold.

For B3, the “IC50, inhibition … (assay 5)” value [3] was 50 nM.

With B4 the “IC50, inhibition of IL20 induced proliferation of BaF-3(hIL20R) at 1e-9M hIL20 (assay 4)” value [3] was 40 nM and the “IC50, inhibition … (assay 5)” value [3] was 730 nM.

B5 was tested, and the “IC50, inhibition of IL20 induced proliferation of BaF-3(hIL20R) at 1e-9M hIL20 (assay 1)” value [3] was 260 nM, the “IC50, inhibition of IL20 induced proliferation of BaF-3(hIL20R) at 1e-9M hIL20 (assay 2)” value [3] was 2000 nM and the “IC50, inhibition of IL20 induced proliferation of BaF-3(hIL20R) at 1e-9M hIL20 (assay 3)” value [3] was 370 nM. For the same molecule, the “IC50, inhibition of IL20 induced proliferation of BaF-3(hIL20R) at 1e-9M hIL20 (assay 7)” value [3] was 186 nM.

In the case of B6, the Kd [6] is reported as 0.036 nM, the koff [6] is reported as 6.8e-05 s⁻¹ and the kon [6] is reported as 1.7e+06 M⁻¹ s⁻¹. For the same molecule, the Kd [7] was 0.031 nM, the koff [7] was 7.1e-05 s⁻¹ and the kon [7] was 2.3e+06 M⁻¹ s⁻¹.

B7: binds [8].
